Measurements published in patent publication US20220040297A1 (Chugai, published 2022).
Changes are numbered by the printed parent chain.

B1: GLS3000 G89E (antibody, name in Kabat numbering, V domains shown)
VH: QVQLVESGGGVVQPGRSLRLSCAASGFTFSNAWMHWVRQAPGKGLEWVAQIKAKSNNYATYYAESVKGRFTISRDDSKNSLYLQMNSLKTEDTAVYYCRYVHYGAYYGVDAWGQGTTVTVSS
VL: DIVMTQSPLSLPVTPGEPASISCRSSQSLVHSNRNTYLHWYQQKPGQAPRLLIYKVSNRFSGVPDRFSGSGSGTDFTLKISRVEAEDVGVYYCEQGTQVPYTFGQGTKLEIK
notes: one-arm format as m2
B2: GLS3000 G89H (antibody, name in Kabat numbering, V domains shown)
VH: B1 VH
VL: B1 VL with E94H
notes: one-arm format as m2
B3: GLS3000 G89T (antibody, name in Kabat numbering, V domains shown)
VH: B1 VH
VL: B1 VL with E94T
notes: one-arm format as m2
B4: GLS3000 G89I (antibody, name in Kabat numbering, V domains shown)
VH: B1 VH
VL: B1 VL with E94I
notes: one-arm format as m2
B5: GLS3000 G89W (antibody, name in Kabat numbering, V domains shown)
VH: B1 VH
VL: B1 VL with E94W
notes: one-arm format as m2
B6: GLS3000 G89Y (antibody, name in Kabat numbering, V domains shown)
VH: B1 VH
VL: B1 VL with E94Y
notes: one-arm format as m2
B7: GLS3000 G89F (antibody, name in Kabat numbering, V domains shown)
VH: B1 VH
VL: B1 VL with E94F
notes: one-arm format as m2
B8: GLS3000 G91D (antibody, name in Kabat numbering, V domains shown)
VH: B1 VH
VL: B1 VL with E94G, G96D
notes: one-arm format as m2
B9: GLS3000 G89N (antibody, name in Kabat numbering, V domains shown)
VH: B1 VH
VL: B1 VL with E94N
notes: one-arm format as m2
B10: GLS3000 G89R (antibody, name in Kabat numbering, V domains shown)
VH: B1 VH
VL: B1 VL with E94R
notes: one-arm format as m2
B11: GLS3000 G89Q (antibody, name in Kabat numbering, V domains shown)
VH: B1 VH
VL: B1 VL with E94Q
notes: one-arm format as m2
B12: GLS3000 G89L (antibody, name in Kabat numbering, V domains shown)
VH: B1 VH
VL: B1 VL with E94L
notes: one-arm format as m2
B13: GLS3000 G91A (antibody, name in Kabat numbering, V domains shown)
VH: B1 VH
VL: B1 VL with E94G, G96A
notes: one-arm format as m2
B14: GLS3000 G89K (antibody, name in Kabat numbering, V domains shown)
VH: B1 VH
VL: B1 VL with E94K
notes: one-arm format as m2
B15: GLS3000 G89V (antibody, name in Kabat numbering, V domains shown)
VH: B1 VH
VL: B1 VL with E94V
notes: one-arm format as m2
B16: GLS3000 G89M (antibody, name in Kabat numbering, V domains shown)
VH: B1 VH
VL: B1 VL with E94M
notes: one-arm format as m2
B17: GLS3000 G89P (antibody, name in Kabat numbering, V domains shown)
VH: B1 VH
VL: B1 VL with E94P
notes: one-arm format as m2

molecular target: CD3ε homodimer protein (human, UniProt P07766 23-126, limits assumed); assay: SPR, immobilized CD3ε homodimer;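 further: biacore T200 surface plasmon resonance at 25 °C, antibody variants flowed as analytes over amine-coupled CD3ε homodimer on a CM4 chip, variant binding amount divided by that of GLS3000 antibody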
Sequence (P07766 23-126 limits assumed): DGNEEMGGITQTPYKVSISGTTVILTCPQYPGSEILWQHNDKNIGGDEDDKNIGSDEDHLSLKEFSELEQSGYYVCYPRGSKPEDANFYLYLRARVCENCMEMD
Description: Each one-amino acid altered form constructed, expressed, and purified in the paragraph (6-2) was evaluated using Biacore T200 (GE Healthcare Japan Corp.). An appropriate amount of CD3ε homodimer protein was immobilized onto Sensor chip CM4 (GE Healthcare Japan Corp.) by the amine coupling method. Then, the antibody having an appropriate concentration was injected thereto as an analyte and allowed to interact with the CD3ε homodimer protein on the sensor chip. Then, the sensor chip was regenerated by the injection of 10 mmol/L glycine-HCl (pH 1.5). The assay was conducted at 25° C., and HBS-EP+ (GE Healthcare Japan Corp.) was used as a running buffer. […] Each parameter was calculated using Biacore T200 Evaluation Software (GE Healthcare Japan Corp.).
Specifically, when the amount of the GLS3000-containing antibody bound was defined as X and the amount of the L chain one-amino acid altered form bound was defined as Y, a value of Z (ratio of amounts bound)=Y/X was used.

Row | Binder | ratio of amounts bound (vs GLS3000)
1 | B1 | 0.26
2 | B2 | 0.7
3 | B3 | 1.03
4 | B4 | 1.07
5 | B5 | 0.5
6 | B6 | 1.19
7 | B7 | 1.09
8 | B8 | 0.16
9 | B9 | 0.8
10 | B10 | 0.19
11 | B11 | 0.38
12 | B12 | 0.94
13 | B13 | 0.27
14 | B14 | 0.4
15 | B15 | 1.63
16 | B16 | 0.52
17 | B17 | 0.35
